The sequences below were run on Saccharomyces cerevisiae (assay: transcriptional activation domain activity (GFP:mCherry ratio, weighted mean of sorted bins, harmonized to initial dataset scale) (arbitrary fluorescence ratio units); higher = stronger transcriptional activation). Conditions: beta-estradiol 1 µM; induction time 4 h.
Protocol: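 53-aa protein tiles (fungal proteins plus yeast TF control tiles) fused C-terminally to a DBD-estrogen-binding domain-mCherry synthetic TF, integrated in S. cerevisiae (URA3 locus) with a GFP reporter. Cells were induced with 1 uM beta-estradiol for 4 h at 30 C, FACS-sorted into 8 bins by GFP:mCherry ratio and barcodes sequenced. Activity is the read-weighted mean bin fluorescence (GFP:mCherry), averaged over barcodes (median 12); tiles under 50 reads were discarded. New active-learning values were harmonized by linear fit onto the scale of the initial (Hummel et al.) dataset. The assay saturates at low and high signal.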
“NASVTREVPQFDTSANQMLSDIWSWIYYSEEFLAIPPSMVEGYDFSWQGLLGI” was tested, and the “transcriptional activation domain activity” value was 120000. For “ASEAAVKEESASPAAKKSKKDKKPAKGSSDSVEAPVAEATPKTKKTAKANGAV”, the “transcriptional activation domain activity” value was 28000. With “MIMILLVAVLYFLLFRFDLLGLFYCQLFLLSSHLRFVLSTLYLNGSHHLLFFF” the “transcriptional activation domain activity” value was 34000. With “IVFLFLCFAGFWMCVVCLLLLLYTAVPLIPPHSSSSFDSFGLFMLLLVSCMRF” the “transcriptional activation domain activity” value was 48000. For “YADMLMRIWSVWEFALWQYVSNEEFMGLLGFSRLRFRRMYLLVNNGCLFWRIF”, the “transcriptional activation domain activity” value was 72400. “ESERHSRRRKSVKGKGKAKEVQKKRASKDKTSKRKGKGEKRKRGEEEGRSANK” was tested, and the “transcriptional activation domain activity” value was 60200. With “EAEEGGAGKRKAGSPEDTEQQQESSEKSTESNHKPATKRSTVSERPSKGKRRS” the “transcriptional activation domain activity” value was 11500. For “MRLFYSSFLLFSFLPFLPLLWFFNYLIAIVFPFFFFFFLSFVMGLISFRFLLF”, the “transcriptional activation domain activity” value was 40200. For “MSQFDFGLLFGQPFFLCSLVLFGLGWFITFIATCTIGSSPHLIWVEIFYNLFL”, the “transcriptional activation domain activity” value was 58500. “KSTARDTSAEVSSTKKRARSKAKKGDSDVEEDSDRGRSKTAKKSRKSTGAKSS” was tested, and the “transcriptional activation domain activity” value was 12800. In the case of “YSHLFNLHTVVFDNYLLYHNAFLLFPLVFCVLPICAIFCFCGMLCNLNRLSGR”, the “transcriptional activation domain activity” value is reported as 66600. “MTFLHLYFSLSSCLLKTCLSFFVPTPQLLHFTSCIFICFIGTGVFFLYFPFLF” was tested, and the “transcriptional activation domain activity” value was 65700. “ERRRKDQRKREKEEEERCHQEGREKKGEEHRREGDEERGRKEQETHASQEANG” was tested, and the “transcriptional activation domain activity” value was 29600. “MLAGAFLPLLFGFFFFSFPTSHTPPFHLLPPGFQFLPVSTSFSYFFCFCFFFP” was tested, and the “transcriptional activation domain activity” value was 39100. For “GAAASPPPNPDGGKPRKRKGPKEKGGEGNAAARRDAGAGAGAGAARSGSAAAA”, the “transcriptional activation domain activity” value was 27100. For “QRNPGSRAVIVKPILHVYLEGAPGSLTTRNDSVVGLLVVQLSISLANALAMKA”, the “transcriptional activation domain activity” value was 22900. In the case of “LAQAFFASMPVVCFLTFGLFVLFALVAGFLFFTLFWVGLAFCVLVPVLVVTFC”, the “transcriptional activation domain activity” value is reported as 49000. For “MAGSFFFSFFFLSLFMLFHFLSLSFLIFFFLSSLSSFAFLLLLISPFGPPNPH”, the “transcriptional activation domain activity” value was 54400. “PCSHTILNYGMTLSVSLVVVFRVSHMSFLSSSELSFLRGYHMMLASAFFLFVF” was tested, and the “transcriptional activation domain activity” value was 36600. “MFIFFLILLFYYYFYSTILFITYTLFSITQLSIFTLIPFLYYIIHYVTLLICS” was tested, and the “transcriptional activation domain activity” value was 41100. In the case of “KWVAHSVVEKCVLLLILWHRYAMDVVRECSEAWEKLITGKTAPNGISTTNLTV”, the “transcriptional activation domain activity” value is reported as 31500. With “RQREGQIERRGEGRAWRTEGGARGGRRKGARREKGTGREGRRRARKKAKRDRP” the “transcriptional activation domain activity” value was 27600. With “MSSWDGTQGSSSNGQVRKRRRIALACDSCRARKSRCDGRRPQCSSCAGQGTKC” the “transcriptional activation domain activity” value was 43400. For “HARLKIIETATKAWSGALDADIKTKMAQSTAGFSGADVKVRAPHPLWDIHRPL”, the “transcriptional activation domain activity” value was 37200. With “KASARKKRAPKKSDEGKRGEKEGNRSANGSNDEDDDRDSSSSSSSNDEATSRS” the “transcriptional activation domain activity” value was 11200. For “ISVLGNQQIPGISHGDGLLPDVDGLLGNDTFWSFTDAAWMGEIEDNISGFIWD”, the “transcriptional activation domain activity” value was 143000. With “RASAAVPRRRDSTDSSDSEGDIRAAMAAARRKQAKVPAPRPVVENRPAPANTP” the “transcriptional activation domain activity” value was 36300. With “PSEEKTVQKPDTAVAPPEDKAEPTPDATKPKEKKSRKKSKKAAEEKADGASTS” the “transcriptional activation domain activity” value was 25300. For “MSVSSPEDVTSEASGPAATAPAHEPLACVNCRSRKLKCDRQKPVCSRCAKAGG”, the “transcriptional activation domain activity” value was 46300. For “LGLSIWTPWKDVYTRLPKRIYAKLLATAEMEVKYKPKVLVSQIWNAVIISMYR”, the “transcriptional activation domain activity” value was 61600. For “GGISKGENAHNFQNDTKKNMSTSNLFPFSFSNTDLTALFTHPEGPNCTNTNNG”, the “transcriptional activation domain activity” value was 56600. “FYLSPVMPLFPPLLKLLREYLSDPLYKDFVSAIYLWVRSVELHHMSTLCIALL” was tested, and the “transcriptional activation domain activity” value was 68900. “KSDAAAQVPSRGQKRDRDGDEEGSDAEAGVPGTPIRSSRKTKKRGKKSKEPRE” was tested, and the “transcriptional activation domain activity” value was 50200. “MSTPKVVASATRQINAVVVSAGLMQKTVKARVGVQKWNRHIKKHFNRSTNVLV” was tested, and the “transcriptional activation domain activity” value was 53100. With “GGVNWESTRDREAVVIRILSPIVEADGSVYICIWIHPVGIIIVHLIVELKLVH” the “transcriptional activation domain activity” value was 42300. In the case of “MVLVIQFYTVFFSFVYYFIFFSSSNLFSILCPPPPPPIIPIFCPLVGAFGFLF”, the “transcriptional activation domain activity” value is reported as 42000. In the case of “VALDHLYLDEEQTHAIKSLSSLYIKVVIIFIKYLLVHRKIKQRLVRSWAYCYD”, the “transcriptional activation domain activity” value is reported as 57900. In the case of “TEETPHDLPKNTAKGRDEEDFPLDYFPVSVEYPTEENAFDPFPPQAFTPAAPS”, the “transcriptional activation domain activity” value is reported as 42500. “VYTVMILSTIFGICYVPFGVFICDSLKAYPGEVTNCSHQMQNLATIFFILFSV” was tested, and the “transcriptional activation domain activity” value was 57000. For “MHYLGLFRALDYNASSLIGVVNIDYTTVIYLIIEELIILLLTLAKRNVATQYA”, the “transcriptional activation domain activity” value was 61800. “EMVKTESVATSSTTTTKTESEGAVVKEEKMASPSPTRVKVEKVEVKRVPTISL” was tested, and the “transcriptional activation domain activity” value was 15700. “KMSTNANNYTGAGNLHAAKPATSPTNVGTLHENLSSSHFMIPDVDQFNSFEDF” was tested, and the “transcriptional activation domain activity” value was 30300. “MHVYVYIIIYNNIWYCMVYSINIHIFVNNYYLLRLLAIYYSYCFIVLLFIMFF” was tested, and the “transcriptional activation domain activity” value was 43500. “SHLDRRSNQFCRVQFCYKHLLLLWFFLLLFLAYPCQLLCIIIFPNLVSSLCRF” was tested, and the “transcriptional activation domain activity” value was 31200. For “IRYWLLTFFVMDFLPNRELRLLLASWLNTLVNDPILKKHQDGLSIVRKLIKVA”, the “transcriptional activation domain activity” value was 51600. With “MYLFFLFYILEFAVRSESGPICASNTKCIGRYCVYCKCTSLLSRVLRLLFICC” the “transcriptional activation domain activity” value was 64300. “CLMVVFLIVQLLVITVARRCRKTDARFVLERVFLKTHLGLYVFCLLITNFASG” was tested, and the “transcriptional activation domain activity” value was 50200. For “MLLTLLWLFFFFFFFFFPNIPPGVLFTFPSFDLLFASWFISSICASPFFAQFP”, the “transcriptional activation domain activity” value was 56100. In the case of “ILFMLFYYLSIYFIGTLGGIWLATYIMSFRENLVIQLVIARVCFIVALGVVMA”, the “transcriptional activation domain activity” value is reported as 35400. “IWVAPWNAGKILFFLIRYLVFVDTSVSIVYLAGGPLTLSRCHTLFGWFTASFT” was tested, and the “transcriptional activation domain activity” value was 74800. With “EVLITKKPAKQTRGKKAPTAAVNKAEIEEGQDDVNFANVGRGRKRAVAKKVVE” the “transcriptional activation domain activity” value was 25700. With “PPPPPPPGAMGGLPPPPPPPPPPPGGPGGGPPPPPPPPPGGPGGPPPPPPPPG” the “transcriptional activation domain activity” value was 35100. For “MCIFFCPVSSLEVIWSVFLVFFYGYIFFTFFFLQCRSMVLIIPFLFTLVFHIF”, the “transcriptional activation domain activity” value was 42700. For “MHSGPSFSCFFSVFPSFIFGLSTSSTLYIYFFFLLLDQLFVPSFFALLLLFLP”, the “transcriptional activation domain activity” value was 41400. For “MTNLFSASFLSSSSSLSFFFSLFFLLFQRYLLEERPLTIMAFYLLPFFFSLSL”, the “transcriptional activation domain activity” value was 29800. For “GTCGKLGLLCRSMALYSPEVTVVTVSGGGGSSRWVEYLELALRTTGRVAVLLT”, the “transcriptional activation domain activity” value was 64500. In the case of “TGQGGLEEVKGKLDETKASFAYVRITYANDKESQREKFILIIFIGAEVKVMRK”, the “transcriptional activation domain activity” value is reported as 37500. For “FEHKELKLCPYFNFTFCVYFRLSNPFAKQYHITPTCFCGQNVTINRTYREGKN”, the “transcriptional activation domain activity” value was 62800. “MGASLRVQIWVCIRLELCCSWIWFLASFGILFFFFCFCPLRTSLHSFPLPLYI” was tested, and the “transcriptional activation domain activity” value was 47800. In the case of “ILSRLSLCIGIIIAFVFCTIPLLTYHRDSPVLRCSLYNIIDNFFLPLYLFIVW”, the “transcriptional activation domain activity” value is reported as 53400. With “MQASFIFLSFTSGVIHTYILYLDLVAYFLLSLGGFVLIIGFWRWGFFFSFFPF” the “transcriptional activation domain activity” value was 55400.

From the supplement of paper PMC12636428
